Measured values reported in IntAct's records for PubMed 31515488.

B1: Keratin, type II cytoskeletal 6A (Homo sapiens), P02538 (parent)
chain: MASTSTTIRSHSSSRRGFSANSARLPGVSRSGFSSVSVSRSRGSGGLGGACGGAGFGSRSLYGLGGSKRISIGGGSCAISGGYGSRAGGSYGFGGAGSGFGFGGGAGIGFGLGGGAGLAGGFGGPGFPVCPPGGIQEVTVNQSLLTPLNLQIDPTIQRVRAEEREQIKTLNNKFASFIDKVRFLEQQNKVLETKWTLLQEQGTKTVRQNLEPLFEQYINNLRRQLDSIVGERGRLDSELRGMQDLVEDFKNKYEDEINKRTAAENEFVTLKKDVDAAYMNKVELQAKADTLTDEINFLRALYDAELSQMQTHISDTSVVLSMDNNRNLDLDSIIAEVKAQYEEIAQRSRAEAESWYQTKYEELQVTAGRHGDDLRNTKQEIAEINRMIQRLRSEIDHVKKQCANLQAAIADAEQRGEMALKDAKNKLEGLEDALQKAKQDLARLLKEYQELMNVKLALDVEIATYRKLLEGEECRLNGEGVGQVNISVVQSTVSSGYGGASGVGSGLGLGGGSSYSYGSGLGVGGGFSSSSGRAIGGGLSSVGGGSSTIKYTTTSSSSRKSYKH
partner: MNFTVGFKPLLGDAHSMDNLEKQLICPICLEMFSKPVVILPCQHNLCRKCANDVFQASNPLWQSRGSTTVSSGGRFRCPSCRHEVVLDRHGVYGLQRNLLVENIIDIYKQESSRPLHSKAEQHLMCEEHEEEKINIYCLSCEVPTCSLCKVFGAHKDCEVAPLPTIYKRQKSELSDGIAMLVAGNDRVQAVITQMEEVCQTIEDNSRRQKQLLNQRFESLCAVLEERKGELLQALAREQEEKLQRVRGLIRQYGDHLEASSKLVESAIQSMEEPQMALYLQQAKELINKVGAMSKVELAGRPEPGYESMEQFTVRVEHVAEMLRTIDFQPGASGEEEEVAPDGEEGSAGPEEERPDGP
B2: NUT family member 2F (Homo sapiens), A1L443 (parent)
chain: MASNGAYPVLGPGVTVNPGTSLSVFTALPFATPAPGPAHRPPLVTAVVPPAGPLVLSAFPSTPLVAGQDGRGPSGAGASNVFVQMRTEVGPVKPPQAQTLILTQAPLVWQAPGTLCGGVMCPPPLLLAAAPGVPVTSAQVVGGTQACEGGWSHGLPLPPPPPAAQVAPIVSPGNARPWPQGAHGEGSLAPSQAKARPDDSCKPKSVYENFRLWQHYKPLARRHLPQSPDTEALSCFLIPVLRSLARRKPTMTLEEGLWQAMREWQHTSNFDRMIFYEMAEKFLEFEAEEEMQIQKSQWMKGPQSLPPPAPPRLEPRGPPAPEVVKQPVYLPSKDGPKAPTACLPPPRPQRPAETKAHLPPPRPQRPAETNAHLPPPRPQRPAETKVPEEIPPEVVQEYVDIMEELLGSHPGDTGEPEGQREKGKVEQPQEEDGITSDPGLLSYIDKLCSQEDFVTKVEAVIHPRFLEELLSPDPQMDFLALSQELEQEEGLTLAQLVEKRLLSLKEKGCGRAAPRHGTARLDSSPSEFAAGQEAAREVPDPQQRVSVETSPPQTAAQDPQGQGRVRTGMARSEDPAVLLGCQDSPRLKAVRPTSPPQDHRPTCPGLGTKDALGLPGESPVKESHGLAKGSSEETELPGMVYVVGSHHRLRPWRLSQSPVPSSGLLSPGGRGPQGALQSPSAQKRGLSPSPSPASKSKKRPLFGSPSPAEKTPHPGPGLRVSGEQSLAWGLGGPSQSQKRKGDPLASRRKKKRHCSQ
partner: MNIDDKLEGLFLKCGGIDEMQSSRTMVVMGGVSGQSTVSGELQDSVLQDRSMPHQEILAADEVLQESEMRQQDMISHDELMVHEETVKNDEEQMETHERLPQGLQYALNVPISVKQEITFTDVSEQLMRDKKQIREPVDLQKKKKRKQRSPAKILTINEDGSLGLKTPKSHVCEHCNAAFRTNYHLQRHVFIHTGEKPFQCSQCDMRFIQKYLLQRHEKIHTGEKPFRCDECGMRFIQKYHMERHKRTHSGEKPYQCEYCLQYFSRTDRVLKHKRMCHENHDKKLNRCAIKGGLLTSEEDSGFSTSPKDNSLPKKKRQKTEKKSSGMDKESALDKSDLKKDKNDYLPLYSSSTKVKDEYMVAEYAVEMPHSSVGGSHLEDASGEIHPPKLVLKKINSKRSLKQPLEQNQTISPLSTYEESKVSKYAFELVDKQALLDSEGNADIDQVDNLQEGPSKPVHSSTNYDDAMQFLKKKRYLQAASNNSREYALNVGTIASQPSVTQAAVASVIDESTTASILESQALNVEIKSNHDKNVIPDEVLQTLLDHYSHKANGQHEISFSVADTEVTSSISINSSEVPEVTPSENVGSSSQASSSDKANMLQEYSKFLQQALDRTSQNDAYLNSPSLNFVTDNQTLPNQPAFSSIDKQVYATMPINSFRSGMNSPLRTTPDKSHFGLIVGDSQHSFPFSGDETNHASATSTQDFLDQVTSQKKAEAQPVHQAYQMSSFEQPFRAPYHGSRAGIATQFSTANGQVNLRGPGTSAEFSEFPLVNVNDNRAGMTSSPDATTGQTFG
B3: Uncharacterized protein C3orf62 (Homo sapiens), Q6ZUJ4 (parent)
chain: MHYIKTWSLLGEMSEKLRRCRKELTAAIDRAFEGVSYSQECTGQQRLELSAAPLSFSLPVHRLLCRRHPLAACSSAAPFAAVPCAPENENPAFATNHAPVNAKPHALCPERKPLTSKENVLMHSSILAPERESWRTAGEGENWRKENLRKDMERDLKADSNMPLNNSSQEVTKDLLDMIDHTSIRTIEELAGKIEFENELNHMCGHCQDSPFKEEAWALLMDKSPQKATDADPGSLKQAFDDHNIVETVLDLEEDYNVMTSFKYQIE
partner: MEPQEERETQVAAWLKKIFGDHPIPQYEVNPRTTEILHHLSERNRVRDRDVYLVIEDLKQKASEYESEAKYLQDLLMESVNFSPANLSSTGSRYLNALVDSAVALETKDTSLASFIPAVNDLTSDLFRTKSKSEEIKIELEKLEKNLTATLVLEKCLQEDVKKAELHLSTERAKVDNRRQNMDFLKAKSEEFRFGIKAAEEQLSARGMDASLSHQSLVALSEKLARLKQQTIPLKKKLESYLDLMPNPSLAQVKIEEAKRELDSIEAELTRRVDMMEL
B4: Myomegalin (Homo sapiens), Q5VU43-2 (parent)
chain: MKEICRICARELCGNQRRWIFHTASKLNLQVLLSHVLGKDVPRDGKAEFACSKCAFMLDRIYRFDTVIARIEALSIERLQKLLLEKDRLKFCIASMYRKNNDDSGAEIKAGNGTVDMSVLPDARYSALLQEDFAYSGFECWVENEDQIQEPHSCHGSEGPGNRPRRCRGCAALRVADSDYEAICKVPRKVARSISCGPSSRWSTSICTEEPALSEVGPPDLASTKVPPDGESMEEETPGSSVESLDASVQASPPQQKDEETERSAKELGKCDCCSDDQAPQHGCNHKLELALSMIKGLDYKPIQSPRGSRLPIPVKSSLPGAKPGPSMTDGVSSGFLNRSLKPLYKTPVSYPLELSDLQELWDDLCEDYLPLRVQPMTEELLKQQKLNSHETTITQQSVSDSHLAELQEKIQQTEATNKILQEKLNEMSYELKCAQESSQKQDGTIQNLKETLKSRERETEELYQVIEGQNDTMAKLREMLHQSQLGQLHSSEGTSPAQQQVALLDLQSALFCSQLEIQKLQRVVRQKERQLADAKQCVQFVEAAAHESEQQKEASWKHNQELRKALQQLQEELQNKSQQLRAWEAEKYNEIRTQEQNIQHLNHSLSHKEQLLQEFRELLQYRDNSDKTLEANEMLLEKLRQRIHDKAVALERAIDEKFSALEEKEKELRQLRLAVRERDHDLERLRDVLSSNEATMQSMESLLRAKGLEVEQLSTTCQNLQWLKEEMETKFSRWQKEQESIIQQLQTSLHDRNKEVEDLSATLLCKLGPGQSEIAEELCQRLQRKERMLQDLLSDRNKQVLEHEMEIQGLLQSVSTREQESQAAAEKLVQALMERNSELQALRQYLGGRDSLMSQAPISNQQAEVTPTGRLGKQTDQGSMQIPSRDDSTSLTAKEDVSIPRSTLGDLDTVAGLEKELSNAKEELELMAKKERESQMELSALQSMMAVQEEELQVQAADMESLTRNIQIKEDLIKDLQMQLVDPEDIPAMERLTQEVLLLREKVASVESQGQEISGNRRQQLLLMLEGLVDERSRLNEALQAERQLYSSLVKFHAHPESSERDRTLQVELEGAQVLRSRLEEVLGRSLERLNRLETLAAIGGAAAGDDTEDTSTEFTDSIEEEAAHHSHQQL
partner: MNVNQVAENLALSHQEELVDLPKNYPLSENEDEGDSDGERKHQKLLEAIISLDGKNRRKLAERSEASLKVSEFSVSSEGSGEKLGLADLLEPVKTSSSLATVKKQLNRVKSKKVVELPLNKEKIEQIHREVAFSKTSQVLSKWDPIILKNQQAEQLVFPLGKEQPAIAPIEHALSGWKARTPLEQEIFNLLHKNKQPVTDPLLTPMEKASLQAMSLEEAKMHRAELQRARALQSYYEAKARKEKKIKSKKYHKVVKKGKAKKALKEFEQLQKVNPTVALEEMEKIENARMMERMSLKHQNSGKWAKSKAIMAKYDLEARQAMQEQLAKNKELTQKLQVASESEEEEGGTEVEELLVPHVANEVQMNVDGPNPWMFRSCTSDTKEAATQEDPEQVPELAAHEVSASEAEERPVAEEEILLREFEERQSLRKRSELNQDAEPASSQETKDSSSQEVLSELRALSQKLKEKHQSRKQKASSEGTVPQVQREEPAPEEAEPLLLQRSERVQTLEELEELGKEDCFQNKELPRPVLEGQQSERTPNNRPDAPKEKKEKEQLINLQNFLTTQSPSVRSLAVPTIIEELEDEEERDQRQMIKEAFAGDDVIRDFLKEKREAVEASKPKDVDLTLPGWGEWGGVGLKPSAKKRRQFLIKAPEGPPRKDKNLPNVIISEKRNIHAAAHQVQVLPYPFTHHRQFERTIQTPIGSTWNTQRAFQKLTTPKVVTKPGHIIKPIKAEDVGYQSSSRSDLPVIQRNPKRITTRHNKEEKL
B5: Pre-mRNA-splicing factor SPF27 (Homo sapiens), O75934 (parent)
chain: MAGTGLVAGEVVVDALPYFDQGYEAPGVREAAAALVEEETRRYRPTKNYLSYLTAPDYSAFETDIMRNEFERLAARQPIELLSMKRYELPAPSSGQKNDITAWQECVNNSMAQLEHQAVRIENLELMSQHGCNAWKVYNENLVHMIEHAQKELQKLRKHIQDLNWQRKNMQLTAGSKLREMESNWVSLVSKNYEIERTIVQLENEIYQIKQQHGEANKENIRQDF
partner: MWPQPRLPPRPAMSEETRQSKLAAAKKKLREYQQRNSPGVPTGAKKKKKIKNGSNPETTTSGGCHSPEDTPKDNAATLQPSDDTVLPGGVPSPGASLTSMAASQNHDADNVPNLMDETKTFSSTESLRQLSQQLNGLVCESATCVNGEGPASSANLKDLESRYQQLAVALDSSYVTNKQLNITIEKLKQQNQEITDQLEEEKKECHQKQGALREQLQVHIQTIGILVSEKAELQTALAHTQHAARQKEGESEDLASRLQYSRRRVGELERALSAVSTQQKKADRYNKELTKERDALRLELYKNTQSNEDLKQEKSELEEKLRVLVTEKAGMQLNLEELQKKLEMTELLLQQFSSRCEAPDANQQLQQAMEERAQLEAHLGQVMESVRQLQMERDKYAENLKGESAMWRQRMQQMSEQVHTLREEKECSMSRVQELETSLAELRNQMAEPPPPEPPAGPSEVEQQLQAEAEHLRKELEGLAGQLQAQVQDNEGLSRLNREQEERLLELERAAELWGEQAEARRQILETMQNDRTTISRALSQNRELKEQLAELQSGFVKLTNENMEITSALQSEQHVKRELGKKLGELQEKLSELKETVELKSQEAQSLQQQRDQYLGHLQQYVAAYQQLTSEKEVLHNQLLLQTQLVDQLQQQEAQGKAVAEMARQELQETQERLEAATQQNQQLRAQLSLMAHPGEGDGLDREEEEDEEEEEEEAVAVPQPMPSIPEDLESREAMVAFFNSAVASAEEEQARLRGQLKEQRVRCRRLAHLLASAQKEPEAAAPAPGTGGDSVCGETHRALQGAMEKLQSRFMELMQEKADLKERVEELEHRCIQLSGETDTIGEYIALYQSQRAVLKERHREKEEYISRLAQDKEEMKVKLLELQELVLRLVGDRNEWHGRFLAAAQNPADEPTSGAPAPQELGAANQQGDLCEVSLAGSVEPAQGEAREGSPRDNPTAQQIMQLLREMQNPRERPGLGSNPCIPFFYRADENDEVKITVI
B6: Vacuolar protein sorting-associated protein 4B (Homo sapiens), O75351 (parent)
chain: MSSTSPNLQKAIDLASKAAQEDKAGNYEEALQLYQHAVQYFLHVVKYEAQGDKAKQSIRAKCTEYLDRAEKLKEYLKNKEKKAQKPVKEGQPSPADEKGNDSDGEGESDDPEKKKLQNQLQGAIVIERPNVKWSDVAGLEGAKEALKEAVILPIKFPHLFTGKRTPWRGILLFGPPGTGKSYLAKAVATEANNSTFFSISSSDLVSKWLGESEKLVKNLFQLARENKPSIIFIDEIDSLCGSRSENESEAARRIKTEFLVQMQGVGVDNDGILVLGATNIPWVLDSAIRRRFEKRIYIPLPEPHARAAMFKLHLGTTQNSLTEADFRELGRKTDGYSGADISIIVRDALMQPVRKVQSATHFKKVRGPSRADPNHLVDDLLTPCSPGDPGAIEMTWMDVPGDKLLEPVVSMSDMLRSLSNTKPTVNEHDLLKLKKFTEDFGQEG

Variants of: B1
Conditions: with tri54_human TRIM54, Q9BYV2

| effect of a mutation on the interaction | Variant |
| --- | --- |
| with no effect | L210M |
| with no effect | R559G |

Variants of: B2
Conditions: with zn148_human ZNF148, Q9UQR1

| effect of a mutation on the interaction | Variant |
| --- | --- |
| with no effect | N370K |

Variants of: B3
Conditions: with haus1_human HAUS1, Q96CS2

| effect of a mutation on the interaction | Variant |
| --- | --- |
| with no effect | R66G |

Variants of: B4
Conditions: with ut14c_human UTP14C

| effect of a mutation on the interaction | Variant |
| --- | --- |
| with no effect | N28S |

Variants of: B5
Conditions: with goga2_human GOLGA2, Q08379

| effect of a mutation on the interaction | Variant |
| --- | --- |
| disrupting interaction strength | N139S |

Variants of: B6
Conditions: with anchr_human ZFYVE19, Q96K21
anchr_human ZFYVE19, Q96K21, sequence (Q96K21 whole entry): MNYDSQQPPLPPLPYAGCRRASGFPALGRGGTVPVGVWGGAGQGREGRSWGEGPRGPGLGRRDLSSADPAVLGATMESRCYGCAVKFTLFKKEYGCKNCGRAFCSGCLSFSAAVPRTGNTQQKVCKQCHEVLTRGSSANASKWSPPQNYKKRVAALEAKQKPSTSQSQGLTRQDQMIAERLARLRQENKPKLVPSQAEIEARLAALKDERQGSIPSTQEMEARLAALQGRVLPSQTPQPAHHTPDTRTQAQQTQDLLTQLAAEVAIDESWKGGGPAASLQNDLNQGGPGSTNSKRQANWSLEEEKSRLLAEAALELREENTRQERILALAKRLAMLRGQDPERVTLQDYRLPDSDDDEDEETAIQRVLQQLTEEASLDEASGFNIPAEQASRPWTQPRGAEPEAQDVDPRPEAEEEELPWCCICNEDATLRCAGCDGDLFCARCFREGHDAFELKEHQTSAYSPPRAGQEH

| effect of a mutation on the interaction | Variant |
| --- | --- |
| with no effect | I58M |
